Positions of bridges follow the written chain, without caps; N, C: chain ends. Non-standard residues stand in square brackets, D forms with d. No end group written: not given here.
Experiments:
[1] = molecular target: T1, human uromodulin (human, UniProt P07911 25-614); assay: competition ELISA; biotin-uromodulin + peptide on coated light chain ROC (competitor)
Experimental: (§1) Enzyme-linked immunosorbant assays (ELISA) were performed on the disclosed peptides. Plates were coated with the following light chain clones overnight at 4° C.: 0.05 uM BER (subtype lambda, isolated from SP2/0 cells), 0.2 uM ROC (subtype kappa, isolated from CHO cells), and 0.3 uM BEN (subtype lambda, isolated from CHO cells). The plates were washed and treated with bovine serum albumin (BSA) overnight at 4° C. For peptide plates, 10 nM biotin-uromodulin was mixed with peptide overnight at 4° C.

[2] = molecular target: T1, human uromodulin; assay: competition ELISA; biotin-uromodulin + peptide on coated light chain BER (competitor)
Experimental: as §1

B1: SEQ ID No. 47 (peptide)
peptide: [dK][dK]CQQS[dY]SIPYTC[dK][dK]
modifications: disulfide 3-13 (inferred)
notes: synthetic; disulfide bridge formed per general procedure; also called K*K*CQQSY*SIPYTCK*K*
Work on B1 yielded an IC50 [1] of 33.5 µM and an IC50 [2] of 32.3 µM.
